Results as given in patent US20220380801A1, “TRIPARTITE SYSTEMS FOR PROTEIN DIMERIZATION AND METHODS OF USE” (priority 2019, published 2022).

Test system: NanoLuc-PEST reporter in HEK293 cells
Test: Transcriptional regulation assay (split transcription factor), NanoLuc-PEST reporter
Assay type: cell-based, human
Excerpt: The iDimerize regulated transcription system (Takara) was used to test the ability of PRSIM-based CIDs to regulate gene expression. […] The DBD and AD are separately fused to the two protein components of a CID such that, only in the presence of the small molecule inducer, the AD is brought into close proximity to the DBD, recruiting the transcription machinery to a promoter harbouring the DBD recognition sites. The iDimerize regulated transcription system (Takara) provides two vectors, pHet-Act1-2 and pZFHD1-Luciferase. […]
All transcriptional regulation assays were performed in adherent HEK293 cells cultured in 384-well plates. Cells enzymatically dissociated from a tissue culture flask were counted and plated at 7.5×10^3 cells/well in a 384-well plate. […] On day 3, wells were treated with different concentrations of either A/C heterodimeriser (for the FRB:FKBP12 control), simeprevir or with vehicle control, and 24 hours later luminescence was quantified with an Envision plate reader immediately following addition of SteadyGlo luciferase substrate (Promega) or Nano-Glo Vivazine luciferase substrate (Promega). Alternatively, reverse transfections were carried out on Day 1, addition of dimeriser on Day 2 and luminescence quantified 24 hours later on Day 3. […]

B1: PRSIM_23: Tn3 protein specific for HCV NS3/4A PR (S139A):simeprevir complex, SEQ ID NO: 5 (protein)
chain: RLDAPSQIEVKDVTDTTALITWVDPRYDDIWWFELTYGIKDVPGDRTTIKLYLNDPYYSIGNLKPDTEYEVSLISYTGDSYSRSGSNPAKITFKTGL
modifications: PRSIM_23
- fold change of NanoLuc-PEST expression (one copy of the DBD fusion partner): 55 fold
- fold change of NanoLuc-PEST expression (three copies of the DBD fusion partner): 100 fold
